# Results taken from the supplement of paper PMC10065799, “High-throughput profiling of sequence recognition by tyrosine kinases and SH2 domains using bacterial peptide display” (eLife, 2023).
# How the values were obtained:
# [1] = biological target: FGFR1 (UniProt P11362); experiment: phosphorylation enrichment, bacterial display (enrichment ratio); higher = better substrate or ligand; peptides without Tyr show the background
# [2] = biological target: Fyn (UniProt P06241); experiment: as above
# [3] = biological target: EPHB2 (UniProt P29323); experiment: as above
# [4] = biological target: EPHB1 (UniProt P54762); experiment: as above
# [5] = biological target: Hck (UniProt P08631); experiment: as above
# [6] = system: Fer (mouse); experiment: as above
# [7] = system: c-Src; experiment: as above
# [8] = system: c-Abl (mouse); experiment: as above
# [9] = biological target: Fes (UniProt P07332); experiment: as above
# [10] = biological target: FGFR3 (UniProt P22607); experiment: as above
# [11] = system: AncSZ; experiment: as above
# [12] = biological target: Jak2 (UniProt O60674); experiment: as above
# [13] = biological target: MERTK (UniProt Q12866); experiment: as above
# [14] = biological target: c-Src SH2; experiment: SH2 binding enrichment of the phosphorylated peptide, bacterial display (enrichment ratio); higher = better substrate or ligand; peptides without Tyr show the background
# [15] = biological target: SHP2-C SH2; experiment: as above
# [16] = biological target: Grb2 SH2 (UniProt P62993); experiment: as above
# 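For SH2 binding enrichment of the phosphorylated peptide, bacterial display in this document: peptide library displayed on the E. coli surface as eCPX fusions, selected cells deep-sequenced, score is each peptide's frequency after selection divided by its frequency in the input.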
# 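For phosphorylation enrichment, bacterial display in this document: 11-residue human phosphosite peptides and single-mutation variants displayed on the E. coli surface, counted by deep sequencing, each peptide's frequency after selection divided by its frequency in the unselected input library; frequency after pTyr selection over input frequency; kinase dosed for 20-30% of maximal phosphorylation in three min.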
# Sequence of EPHB2 (P29323 whole entry, looked up): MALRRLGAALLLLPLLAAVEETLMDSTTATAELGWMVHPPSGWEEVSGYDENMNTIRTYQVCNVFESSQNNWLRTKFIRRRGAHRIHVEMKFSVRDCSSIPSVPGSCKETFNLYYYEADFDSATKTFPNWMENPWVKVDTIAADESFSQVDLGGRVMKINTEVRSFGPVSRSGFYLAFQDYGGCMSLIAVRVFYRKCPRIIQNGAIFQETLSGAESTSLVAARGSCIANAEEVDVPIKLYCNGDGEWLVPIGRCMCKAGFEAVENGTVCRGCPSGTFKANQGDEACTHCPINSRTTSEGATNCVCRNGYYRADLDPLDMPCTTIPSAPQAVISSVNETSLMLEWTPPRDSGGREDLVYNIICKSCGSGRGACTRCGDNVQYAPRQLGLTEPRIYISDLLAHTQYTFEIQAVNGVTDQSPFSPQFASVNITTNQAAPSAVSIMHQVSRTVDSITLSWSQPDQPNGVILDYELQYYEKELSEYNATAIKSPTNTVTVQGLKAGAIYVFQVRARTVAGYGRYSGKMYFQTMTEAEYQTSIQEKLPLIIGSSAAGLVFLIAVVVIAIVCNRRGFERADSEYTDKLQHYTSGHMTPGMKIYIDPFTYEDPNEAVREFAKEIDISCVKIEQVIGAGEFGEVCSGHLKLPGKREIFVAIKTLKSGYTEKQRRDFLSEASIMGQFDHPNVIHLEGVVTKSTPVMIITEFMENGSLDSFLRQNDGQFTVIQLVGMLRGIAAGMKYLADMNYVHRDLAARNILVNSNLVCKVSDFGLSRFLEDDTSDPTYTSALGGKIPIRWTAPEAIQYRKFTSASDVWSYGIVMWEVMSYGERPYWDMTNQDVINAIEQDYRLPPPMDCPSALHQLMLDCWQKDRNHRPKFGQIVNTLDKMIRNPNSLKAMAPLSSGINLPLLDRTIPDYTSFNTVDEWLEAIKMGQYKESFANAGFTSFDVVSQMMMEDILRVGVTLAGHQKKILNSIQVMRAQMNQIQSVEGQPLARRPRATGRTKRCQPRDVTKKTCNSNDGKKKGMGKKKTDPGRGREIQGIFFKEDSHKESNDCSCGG
# Sequence of Fes (P07332 whole entry, looked up): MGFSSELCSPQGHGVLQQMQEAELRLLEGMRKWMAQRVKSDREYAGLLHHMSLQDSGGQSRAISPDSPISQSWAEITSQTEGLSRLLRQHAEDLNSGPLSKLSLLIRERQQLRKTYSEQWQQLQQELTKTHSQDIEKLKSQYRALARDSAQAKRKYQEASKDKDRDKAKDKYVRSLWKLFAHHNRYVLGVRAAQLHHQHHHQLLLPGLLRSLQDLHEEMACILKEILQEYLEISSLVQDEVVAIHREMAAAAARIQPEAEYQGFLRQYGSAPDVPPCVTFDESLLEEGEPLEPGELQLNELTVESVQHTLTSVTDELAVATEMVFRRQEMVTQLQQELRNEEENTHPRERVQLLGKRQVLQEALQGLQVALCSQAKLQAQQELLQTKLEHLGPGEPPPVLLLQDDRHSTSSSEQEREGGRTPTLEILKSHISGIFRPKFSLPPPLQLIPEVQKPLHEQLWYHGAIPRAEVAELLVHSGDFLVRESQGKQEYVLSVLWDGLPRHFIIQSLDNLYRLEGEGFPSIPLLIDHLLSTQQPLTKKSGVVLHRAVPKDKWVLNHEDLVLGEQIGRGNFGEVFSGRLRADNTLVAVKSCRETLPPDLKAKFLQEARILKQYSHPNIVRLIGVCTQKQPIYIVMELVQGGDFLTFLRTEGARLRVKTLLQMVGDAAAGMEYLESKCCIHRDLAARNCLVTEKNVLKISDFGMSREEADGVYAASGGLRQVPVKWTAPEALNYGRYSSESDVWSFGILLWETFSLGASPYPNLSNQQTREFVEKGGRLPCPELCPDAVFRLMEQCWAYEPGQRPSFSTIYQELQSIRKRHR
# Sequence of Hck (P08631 whole entry, looked up): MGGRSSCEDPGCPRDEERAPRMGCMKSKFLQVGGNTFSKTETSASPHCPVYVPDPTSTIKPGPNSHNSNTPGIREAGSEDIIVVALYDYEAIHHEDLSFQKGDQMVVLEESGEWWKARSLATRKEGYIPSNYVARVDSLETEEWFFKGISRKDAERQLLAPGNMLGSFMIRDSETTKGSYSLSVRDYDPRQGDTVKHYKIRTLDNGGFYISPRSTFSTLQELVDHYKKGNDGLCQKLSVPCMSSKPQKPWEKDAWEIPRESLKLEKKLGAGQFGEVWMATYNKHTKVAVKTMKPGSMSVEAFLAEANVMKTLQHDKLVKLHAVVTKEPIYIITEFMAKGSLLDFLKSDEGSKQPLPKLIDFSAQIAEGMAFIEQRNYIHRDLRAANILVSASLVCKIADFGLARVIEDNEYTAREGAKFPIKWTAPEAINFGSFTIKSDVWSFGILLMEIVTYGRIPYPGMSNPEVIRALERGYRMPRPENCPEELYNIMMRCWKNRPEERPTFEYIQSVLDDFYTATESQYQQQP
# Sequence of Grb2 SH2 (P62993 whole entry, looked up, the tested form may be a part): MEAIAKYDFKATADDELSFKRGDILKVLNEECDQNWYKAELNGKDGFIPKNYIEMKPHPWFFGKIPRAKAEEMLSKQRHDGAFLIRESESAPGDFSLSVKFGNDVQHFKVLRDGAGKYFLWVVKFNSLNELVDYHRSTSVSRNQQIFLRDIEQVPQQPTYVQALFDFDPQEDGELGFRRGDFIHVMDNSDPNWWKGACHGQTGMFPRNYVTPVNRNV
# Sequence of EPHB1 (P54762 whole entry, looked up): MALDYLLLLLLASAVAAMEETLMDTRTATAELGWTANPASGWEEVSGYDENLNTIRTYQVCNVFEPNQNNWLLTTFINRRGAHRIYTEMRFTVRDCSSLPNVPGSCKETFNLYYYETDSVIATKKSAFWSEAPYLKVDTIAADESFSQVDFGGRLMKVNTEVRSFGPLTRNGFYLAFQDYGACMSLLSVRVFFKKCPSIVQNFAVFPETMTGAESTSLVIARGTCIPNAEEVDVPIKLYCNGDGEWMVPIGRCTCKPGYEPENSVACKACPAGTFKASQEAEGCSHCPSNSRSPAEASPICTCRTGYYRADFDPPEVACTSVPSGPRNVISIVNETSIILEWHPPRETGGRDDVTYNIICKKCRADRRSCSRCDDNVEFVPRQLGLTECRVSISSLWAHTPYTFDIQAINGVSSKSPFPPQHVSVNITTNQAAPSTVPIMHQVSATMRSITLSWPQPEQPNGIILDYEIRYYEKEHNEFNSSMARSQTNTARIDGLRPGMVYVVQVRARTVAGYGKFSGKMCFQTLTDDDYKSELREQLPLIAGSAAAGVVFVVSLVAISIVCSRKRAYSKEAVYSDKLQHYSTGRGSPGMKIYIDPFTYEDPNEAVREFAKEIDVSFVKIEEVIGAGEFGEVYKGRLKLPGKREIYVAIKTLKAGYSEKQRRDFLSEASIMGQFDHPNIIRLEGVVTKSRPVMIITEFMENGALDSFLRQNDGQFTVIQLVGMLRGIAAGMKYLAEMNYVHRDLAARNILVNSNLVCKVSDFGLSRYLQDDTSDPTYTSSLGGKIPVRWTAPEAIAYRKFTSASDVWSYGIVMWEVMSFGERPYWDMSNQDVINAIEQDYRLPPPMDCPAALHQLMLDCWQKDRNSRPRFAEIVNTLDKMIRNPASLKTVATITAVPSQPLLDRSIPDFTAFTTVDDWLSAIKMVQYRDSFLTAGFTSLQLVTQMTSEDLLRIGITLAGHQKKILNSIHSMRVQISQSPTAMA
# Sequence of MERTK (Q12866 whole entry, looked up): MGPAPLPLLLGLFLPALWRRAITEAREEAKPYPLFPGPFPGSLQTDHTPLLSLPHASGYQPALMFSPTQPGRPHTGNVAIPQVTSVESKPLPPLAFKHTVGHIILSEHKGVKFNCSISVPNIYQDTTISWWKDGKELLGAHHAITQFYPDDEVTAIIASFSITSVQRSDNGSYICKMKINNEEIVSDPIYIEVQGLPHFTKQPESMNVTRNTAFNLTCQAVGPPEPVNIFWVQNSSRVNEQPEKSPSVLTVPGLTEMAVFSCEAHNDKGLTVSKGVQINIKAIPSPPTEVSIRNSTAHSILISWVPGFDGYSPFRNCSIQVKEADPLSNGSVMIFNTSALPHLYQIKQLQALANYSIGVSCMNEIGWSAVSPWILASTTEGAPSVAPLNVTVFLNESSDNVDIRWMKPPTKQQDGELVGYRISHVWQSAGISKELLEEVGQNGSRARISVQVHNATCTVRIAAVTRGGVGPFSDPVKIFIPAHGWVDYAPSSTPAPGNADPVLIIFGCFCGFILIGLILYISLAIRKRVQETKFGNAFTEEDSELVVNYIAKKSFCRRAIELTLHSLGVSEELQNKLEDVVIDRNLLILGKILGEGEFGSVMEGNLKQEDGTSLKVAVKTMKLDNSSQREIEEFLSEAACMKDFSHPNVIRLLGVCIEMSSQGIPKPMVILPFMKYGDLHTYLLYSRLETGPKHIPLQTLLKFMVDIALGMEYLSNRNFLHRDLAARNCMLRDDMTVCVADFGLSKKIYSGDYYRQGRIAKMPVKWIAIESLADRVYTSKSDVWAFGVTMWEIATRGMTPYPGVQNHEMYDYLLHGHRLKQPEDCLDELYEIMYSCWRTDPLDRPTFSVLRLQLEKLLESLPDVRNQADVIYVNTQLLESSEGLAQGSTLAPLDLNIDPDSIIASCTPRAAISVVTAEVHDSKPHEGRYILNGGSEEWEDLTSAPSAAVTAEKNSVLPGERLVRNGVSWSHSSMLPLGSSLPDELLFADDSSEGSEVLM
Sequence,phosphorylation enrichment [1],phosphorylation enrichment [2],phosphorylation enrichment [3],phosphorylation enrichment [4],phosphorylation enrichment [5],phosphorylation enrichment [6],phosphorylation enrichment [7],phosphorylation enrichment [8],phosphorylation enrichment [9],phosphorylation enrichment [10],phosphorylation enrichment [11],phosphorylation enrichment [12],phosphorylation enrichment [13],SH2 binding enrichment [14],SH2 binding enrichment [15],SH2 binding enrichment [16]
IHFAIYLLKYS [ARMC9_Y107],0.368,0.516,0.59,0.486,0.463,0.486,0.446,0.753,1.16,0.686,1.09,0.917,0.425,0.726,0.955,1.44
IQTDGYRAPEA [UHMK1_Y197],0.447,0.428,0.496,0.782,0.717,0.461,0.398,0.725,0.829,0.382,0.601,1.25,0.491,0.505,0.727,0.763
DGTGRYLCNAC [GATA5_Y208_H207R],0.475,0.424,0.4,0.4,0.375,0.362,0.349,0.523,0.573,0.522,0.552,0.455,0.383,0.487,0.644,0.976
CTTIHHNYMCN [TP53_Y234_Y234H],0.601,0.459,0.531,0.486,0.455,0.412,0.432,0.525,0.649,0.586,0.766,0.835,0.362,1.23,1.03,1.01
YSGDYYRIQGR [DDR2_Y741],12.1,1.04,2.72,5.47,1.68,0.429,2.31,1.76,0.846,8.65,1.82,8.46,5.04,0.552,0.673,1.01
IRFSDYVEVAD [PHACTR1_Y525],1.88,0.538,0.977,1.42,0.519,0.431,0.448,0.755,1.01,1.58,1.41,1.01,0.434,0.58,0.838,1.01
QSMEPYTKQQL [STAT3_Y640_V637M],0.51,0.462,0.66,0.454,0.696,0.546,0.401,0.445,1.02,0.692,0.851,0.736,0.579,0.499,0.851,0.887
SVQVDYMKTIL [GLYATL2_Y127],0.505,0.407,0.611,0.527,0.517,0.644,0.446,0.642,0.776,0.643,0.908,0.791,0.428,0.517,0.656,0.772
SHSMRYFDTAV [HLA-C_Y31],0.471,0.416,0.329,0.42,0.424,0.384,0.367,0.436,0.586,0.521,0.57,0.492,0.497,0.51,0.467,0.716
TVQVAYYTMMM [SPATA17_Y83],10.8,2,1.76,3.4,2.19,3.74,4.49,1.36,1.85,9.18,1.91,4.2,9.05,1.25,0.852,0.782
AKQVGCENAGT [PC_Y304_Y304C],0.391,0.487,0.455,0.407,0.408,0.42,0.428,0.638,0.83,0.484,0.749,0.706,0.442,0.455,0.694,0.803
HTKKNYGNSSV [HDX_Y197_A193T],0.252,0.337,0.403,0.181,0.462,0.393,0.472,0.331,0.656,0.515,0.443,0.433,0.442,0.532,0.647,0.907
AIYEGYALPHA [ACTC1_Y171_P166A],0.761,15.9,30.1,20.8,13.7,22.6,11.3,18.1,1.37,0.773,1.77,0.789,13.8,2.48,0.726,0.792
ETGEPYRLSPE [EIF4G1_Y311],0.58,0.505,0.68,0.733,0.631,0.635,0.527,0.893,1.15,0.783,1.19,1,0.503,0.572,0.75,0.883
TLSGIYQYSIA [FOXL2_Y81_I84S],0.952,4.22,1.98,2.73,3.56,8.33,4.21,1.53,0.899,1.03,1.24,0.65,6.7,1.93,1.83,0.814
DEDFLYREELA [POR_Y575_YF],0.536,0.443,0.594,0.506,0.44,0.544,0.487,0.763,1.21,0.725,1.17,1.15,0.489,0.448,0.793,0.916
KRFRIYHLATS [BRCA2_Y3009_YF],0.358,0.434,0.435,0.353,0.454,0.422,0.482,0.391,1.57,0.481,0.567,0.439,0.38,1.24,1.18,1.05

Sequence,phosphorylation enrichment [1],phosphorylation enrichment [2],phosphorylation enrichment [3],phosphorylation enrichment [4],phosphorylation enrichment [5],phosphorylation enrichment [6],phosphorylation enrichment [7],phosphorylation enrichment [8],phosphorylation enrichment [9],phosphorylation enrichment [10],phosphorylation enrichment [11],phosphorylation enrichment [12],phosphorylation enrichment [13],SH2 binding enrichment [14],SH2 binding enrichment [15],SH2 binding enrichment [16]
LLKKVYLMLDN [STAT1_Y203_M202V],0.968,0.627,0.953,0.93,0.658,0.801,0.816,1.34,2.19,1.15,1.82,1.85,0.704,0.566,0.793,0.96
SAPDSYIRIGN [SLC38A4_Y27_G29R],0.424,0.357,0.396,0.359,0.47,0.35,0.352,0.483,0.796,0.436,0.594,0.52,0.488,0.814,0.757,0.79
KEDPEYKKKFR [FAM161A_Y278_E273K],0.534,0.34,0.589,0.499,0.477,0.455,0.502,0.824,1.07,0.6,0.749,1.02,0.433,0.513,0.873,0.921
SAPPSHEETVA [LITAF_Y23_Y23H],0.374,0.481,0.393,0.435,0.342,0.524,0.404,0.489,0.597,0.84,0.453,0.817,0.338,0.4,0.549,0.62
FNNPAYFVLEG [INPPL1_Y986_YF],7.65,0.679,0.588,0.621,0.578,0.501,0.875,0.816,1.09,5.18,1.25,4.57,3.7,2.06,0.953,1.01
SAPDSYIGIGN [SLC38A4_Y27],0.502,0.511,0.533,0.484,0.495,0.404,0.437,0.594,0.742,0.556,0.669,0.739,0.59,0.584,0.764,0.769
ILGLEYSLRVP [HELZ2_Y1304],0.573,0.515,0.733,0.49,0.567,0.48,0.947,0.753,1.22,0.637,1.03,1.05,0.431,0.484,0.938,0.782
IGLHAYGDQFR [IDH1_Y135_R132L_YF],0.423,0.502,0.491,0.413,0.473,0.51,0.39,0.51,0.799,0.594,0.687,0.519,0.4,0.419,0.449,0.703
RTTIHYNFMCN [TP53_Y234_C229R_YF],0.648,0.527,0.808,0.908,0.54,0.668,0.514,2.01,1.46,1.11,1.33,1.29,0.609,0.624,0.657,0.884
LRFDSYSSFCN [SLC20A2_Y433_YF],0.703,0.464,0.734,0.736,0.687,0.617,0.642,0.833,1.52,1.1,1.54,1.37,0.479,0.519,0.612,0.805
TCFDKYTGSTF [FN1_Y101_N104S_YF],0.443,0.408,0.533,0.494,0.51,0.469,0.529,0.537,1.12,0.699,0.739,0.646,0.448,0.82,0.956,1.29
ALDHKYHGGGG [HBB_Y146_A143D],0.365,0.375,0.355,0.342,0.406,0.321,0.372,0.425,0.526,0.392,0.458,0.455,0.381,0.479,0.6,0.863
ANSPVYVPTTR [GATA6_Y188_S184N],0.419,0.384,0.405,0.371,0.583,0.44,0.448,0.52,0.667,0.441,0.506,0.821,0.468,0.506,0.783,0.834
RRSQSYNPTSG [PLEKHA2_Y185_I186N],0.649,0.897,0.512,0.435,0.821,0.458,0.811,0.765,0.972,0.523,0.612,0.809,0.491,0.323,0.461,0.692
DFKIIYIVPMR [SNRNP200_Y540_A542V],0.55,0.412,0.532,0.525,0.382,0.487,0.42,1.74,1.11,0.653,1.09,0.952,0.366,1.08,2.13,1.67
ARRHPYFFAPE [ALB_Y172_Y174F],2.85,0.58,0.635,0.546,0.402,0.559,0.721,0.538,0.746,1.86,1.09,0.726,0.588,0.525,0.566,0.821
